PMC2791397

Target: GST-Hmt1p (S. cerevisiae) (UniProt P38074)
Sequence (P38074 whole entry): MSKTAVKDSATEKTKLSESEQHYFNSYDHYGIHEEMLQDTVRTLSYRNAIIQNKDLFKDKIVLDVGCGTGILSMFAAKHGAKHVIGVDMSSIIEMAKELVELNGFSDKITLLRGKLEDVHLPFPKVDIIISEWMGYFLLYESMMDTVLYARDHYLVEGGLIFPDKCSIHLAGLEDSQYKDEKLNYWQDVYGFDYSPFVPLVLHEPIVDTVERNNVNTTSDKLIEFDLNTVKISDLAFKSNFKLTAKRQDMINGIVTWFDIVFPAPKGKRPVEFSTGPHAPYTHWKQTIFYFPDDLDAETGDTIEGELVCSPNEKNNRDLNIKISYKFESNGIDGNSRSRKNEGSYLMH

KM of Hmt1p-catalysed methylation of the H4 peptide (3H-SAM, Hanes/Wolffe plot): 0.059 µM
Substance: synthetic histone H4 peptide (residues 1-18) with acetyllysine at position 8 (from UniProt P02309 2-19)
